Sequences and labels used below:
B1: PDZK1 (parent)
chain: QKEQGLSDNILSPVMNGGVQTWTQ
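Further: lentivirally expressed fusions sorted by FACS into six bins by GFP to DsRed ratio, PSI derived from sequencing read proportions per bin multiplied by bin number.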

Variants of B1 are the subject of the data set. In words: protein stability index of a GFP-peptide fusion (GPS, HEK-293T) (PSI 1-6); higher = more stable. The settings on record: c terminus: a fixed tail appended.
Turning to QKEQGLSDNILSPVCNGGVQTWTQ [M15C], the protein stability index worked out at 1.97.
The same measure for QKEQGLSDNILSPVNNGGVQTWTQ [M15N]: 2.85; for QKEQGLSDNILSPVQNGGVQTWTQ [M15Q]: 2.46; for QKEQGLSDNILSPVYNGGVQTWTQ [M15Y]: 2.44.
For QKEQGLSDNILSPVHNGGVQTWTQ [M15H] the value was 2.51; for QKEQGLSDNILSPVFNGGVQTWTQ [M15F], 1.87.
Turning to QKEQGLSDNILSPVANGGVQTWTQ [M15A], the protein stability index is 1.84.
Turning to QKEQGLSDNILSPVSNGGVQTWTQ [M15S], the protein stability index is 2.21.
Consider QKEQGLSDNILSPVDNGGVQTWTQ [M15D], for which the protein stability index worked out at 3.02.
The same measure for QKEQGLSDNILSPVINGGVQTWTQ [M15I]: 2.79; for QKEQGLSDNILSPVTNGGVQTWTQ [M15T]: 2.97.
The same measure for QKEQGLSDNILSPVENGGVQTWTQ [M15E]: 3.69; for QKEQGLSDNILSPVRNGGVQTWTQ [M15R]: 2.24.
The same measure for QKEQGLSDNIMSPVMNGGVQTWTQ [L11M]: 3.25.
For QKEQGLSDNIYSPVMNGGVQTWTQ [L11Y], the protein stability index turned out to be 2.5.
The same measure for QKEQGLSDNIKSPVMNGGVQTWTQ [L11K]: 1.64; for QKEQGLSDNIPSPVMNGGVQTWTQ [L11P]: 2.48; for QKEQGLSDNIWSPVMNGGVQTWTQ [L11W]: 2.33.
The same measure for QKEQGLSDNIHSPVMNGGVQTWTQ [L11H]: 2.75.
The same measure for QKEQGLSDNIISPVMNGGVQTWTQ [L11I]: 1.89; for QKEQGLSDNIESPVMNGGVQTWTQ [L11E]: 3.97; for QKEQGLSDNIRSPVMNGGVQTWTQ [L11R]: 2.73.
For QKEQGLSDNIASPVMNGGVQTWTQ [L11A], the protein stability index was 3.47.
For QKEQGLSDNIVSPVMNGGVQTWTQ [L11V] the value was 3.62; for QKEQGLSDNIFSPVMNGGVQTWTQ [L11F], 2.13; for QKEQGLSDNIQSPVMNGGVQTWTQ [L11Q], 2.
For QKEQGLSDNICSPVMNGGVQTWTQ [L11C] the value was 2.63; for QKEQGDSDNILSPVMNGGVQTWTQ [L6D], 2.65; for QKEQGWSDNILSPVMNGGVQTWTQ [L6W], 2.56.
As for QKEQGMSDNILSPVMNGGVQTWTQ [L6M], the protein stability index stood at 2.12.
With QKEQGRSDNILSPVMNGGVQTWTQ [L6R], the protein stability index was 3.71.
For QKEQGFSDNILSPVMNGGVQTWTQ [L6F] the value was 1.87.
For QKEQGHSDNILSPVMNGGVQTWTQ [L6H] the value was 3.12; for QKEQGKSDNILSPVMNGGVQTWTQ [L6K], 4.46.
Turning to QKEQGASDNILSPVMNGGVQTWTQ [L6A], the protein stability index is 2.96.
QKEQGCSDNILSPVMNGGVQTWTQ [L6C]: the protein stability index came to 2.98.
On to QKEQGYSDNILSPVMNGGVQTWTQ [L6Y], for which the protein stability index worked out at 2.49.
The same measure for QKEQGPSDNILSPVMNGGVQTWTQ [L6P]: 3.03.
With QKEQGTSDNILSPVMNGGVQTWTQ [L6T], the protein stability index was 3.27.
In the case of QKEQGGSDNILSPVMNGGVQTWTQ [L6G], the protein stability index was 2.61.
For QKEQGESDNILSPVMNGGVQTWTQ [L6E] the value was 3.65; for QKEQGNSDNILSPVMNGGVQTWTQ [L6N], 3.29.
For QKEQGQSDNILSPVMNGGVQTWTQ [L6Q] the value was 3.92; for QKEQYLSDNILSPVMNGGVQTWTQ [G5Y], 1.66.
Take QKEQALSDNILSPVMNGGVQTWTQ [G5A]: the protein stability index worked out at 2.4.
Regarding QKEQQLSDNILSPVMNGGVQTWTQ [G5Q], the protein stability index was 2.7.
The same measure for QKEQELSDNILSPVMNGGVQTWTQ [G5E]: 2.82.
For QKEQNLSDNILSPVMNGGVQTWTQ [G5N] the value was 2.7; for QKEQDLSDNILSPVMNGGVQTWTQ [G5D], 2.85.
Regarding QKEQSLSDNILSPVMNGGVQTWTQ [G5S], the protein stability index came to 1.87.
The same measure for QKEQHLSDNILSPVMNGGVQTWTQ [G5H]: 1.98; for QKEQPLSDNILSPVMNGGVQTWTQ [G5P]: 3.15.
For QKEQTLSDNILSPVMNGGVQTWTQ [G5T] the value was 2.92; for QKEQWLSDNILSPVMNGGVQTWTQ [G5W], 2.29.
On to QKEQFLSDNILSPVMNGGVQTWTQ [G5F], for which the protein stability index amounted to 2.44.
Turning to QKEQILSDNILSPVMNGGVQTWTQ [G5I], the protein stability index is 2.48.
The same measure for QKEQMLSDNILSPVMNGGVQTWTQ [G5M]: 1.99; for QKEQRLSDNILSPVMNGGVQTWTQ [G5R]: 2.7.
The same measure for QKEQCLSDNILSPVMNGGVQTWTQ [G5C]: 3.57; for QKEQGLSDQILSPVMNGGVQTWTQ [N9Q]: 2.5; for QKEQGLSDHILSPVMNGGVQTWTQ [N9H]: 2.34.
Regarding QKEQGLSDFILSPVMNGGVQTWTQ [N9F], the protein stability index stood at 1.86.
On to QKEQGLSDCILSPVMNGGVQTWTQ [N9C], for which the protein stability index stood at 2.67.
The same measure for QKEQGLSDDILSPVMNGGVQTWTQ [N9D]: 3.45; for QKEQGLSDIILSPVMNGGVQTWTQ [N9I]: 2.88; for QKEQGLSDKILSPVMNGGVQTWTQ [N9K]: 1.8.
QKEQGLSDLILSPVMNGGVQTWTQ [N9L]: the protein stability index was determined as 2.21.
For QKEQGLSDGILSPVMNGGVQTWTQ [N9G] the value was 2.56; for QKEQGLSDRILSPVMNGGVQTWTQ [N9R], 2.05.
For QKEQGLSDSILSPVMNGGVQTWTQ [N9S] the value was 2.75; for QKEQGLSDVILSPVMNGGVQTWTQ [N9V], 2.38; for QKEQGLSDMILSPVMNGGVQTWTQ [N9M], 2.74.
For QKEQGLSDEILSPVMNGGVQTWTQ [N9E] the value was 3.25.
As for QKEQGLSDTILSPVMNGGVQTWTQ [N9T], the protein stability index is 2.56.
As to QKEQGLSDYILSPVMNGGVQTWTQ [N9Y], the protein stability index was found to be 1.78.
QKEQGLSDAILSPVMNGGVQTWTQ [N9A]: the protein stability index stood at 2.67.
The same measure for QKEQGLSDNILSRVMNGGVQTWTQ [P13R]: 2.09; for QKEQGLSDNILSSVMNGGVQTWTQ [P13S]: 2.37; for QKEQGLSDNILSIVMNGGVQTWTQ [P13I]: 1.59.
For QKEQGLSDNILSKVMNGGVQTWTQ [P13K] the value was 2.47.
Consider QKEQGLSDNILSYVMNGGVQTWTQ [P13Y], for which the protein stability index worked out at 1.9.
As to QKEQGLSDNILSNVMNGGVQTWTQ [P13N], the protein stability index came to 3.05.
For QKEQGLSDNILSQVMNGGVQTWTQ [P13Q] the value was 2.5; for QKEQGLSDNILSVVMNGGVQTWTQ [P13V], 2.41.
As to QKEQGLSDNILSTVMNGGVQTWTQ [P13T], the protein stability index was 2.34.
The same measure for QKEQGLSDNILSCVMNGGVQTWTQ [P13C]: 1.87; for QKEQGLSDNILSFVMNGGVQTWTQ [P13F]: 1.56; for QKEQGLSDNILSAVMNGGVQTWTQ [P13A]: 2.06.
The same measure for QKEQGLSDNILSHVMNGGVQTWTQ [P13H]: 1.96; for QKEPGLSDNILSPVMNGGVQTWTQ [Q4P]: 2.64; for QKETGLSDNILSPVMNGGVQTWTQ [Q4T]: 2.78.
The same measure for QKEDGLSDNILSPVMNGGVQTWTQ [Q4D]: 3.67.
QKEHGLSDNILSPVMNGGVQTWTQ [Q4H]: the protein stability index amounted to 2.61.
On to QKEYGLSDNILSPVMNGGVQTWTQ [Q4Y], for which the protein stability index was found to be 1.98.

The values above are taken from the supplement of paper PMC10567573.
